Publication PMC4828840, “Structural insight into the cooperation of chloroplast chaperonin subunits” (BMC Biology, 2016)

What was measured:
[1] = target: CPN60β1 homo-oligomer (Chlamydomonas reinhardtii); experiment: crystal structure; apo CPN60β1 homo-oligomer, 3.8 Å, space group P21, molecular replacement with apo GroEL
[2] = target: CPN60β1 homo-oligomer (Chlamydomonas reinhardtii)
GroEL = target: T1, GroEL (E. coli, UniProt P0A6F5 1-548); experiment: SEC; gel filtration, Superdex 200; 2 μM chaperonin and 10 μM GroES; buffer with 50 μM AMP-PNP; fractions on SDS-PAGE, Coomassie; settings: both partners purified
T1 construct: GroEL, group I chaperonin of E. coli; Purification of proteins is in Additional file 1; copies: 14

CPN60β1 homo-oligomer (natural protein)
stoichiometry N [1]: 14 subunits

mitochondrial co-chaperonin Hsp10 from mouse (from UniProt Q64433 1-102) (natural protein)
inhibition of the ATPase activity of CPN60β1 (0.2 μM chaperonin, 0.4 μM co-chaperonin, 25 °C) [2]: 50%

B1: GroES (natural protein, E. coli, UniProt P0A6F9 1-97, looked up)
chain: MNIRPLHDRVIVKRKEVETKSAGGIVLTGSAAAKSTRGEVLAVGNGRILENGEVKPLDVKVGDIVIFNDGYGVKSEKIDNEEVLIMSESDILAIVEA
notes: GroES, co-chaperonin of E. coli; Purification of proteins is in Additional file 1
binding result (GroEL): binds
